The record followed here is the Immune Epitope Database (IEDB).

Experiment [1] deals with HLA-B*15:03. The experiment can be described thus: IEDB peptide-MHC binding, purified MHC/competitive/radioactivity; filed as Kd, often an IC50 or EC50 that approximates it; ≥ and ≤ were set here for values at or beyond the usual limits of such assays.
In experiment [2] the target is HLA-B*15:01. Described as above.
The target of experiment [3] is HLA-A*30:02. The experiment is described as above. Particulars: source organism: Dengue virus 1 Brazil/97-11/1997.
The target in experiment [4] is HLA-A*03:01. The experiment can be described thus: IEDB peptide-MHC binding, purified MHC/competitive/fluorescence; filed as Kd, often an IC50 or EC50 that approximates it; ≥ and ≤ were set here for values at or beyond the usual limits of such assays. Particulars: source organism: Escherichia coli 101-1.
For experiment [5], the target named is HLA-A*31:01. The experiment is described as above.
Experiment [6] has as its target HLA-B*53:01. As to the kind of experiment: IEDB peptide-MHC binding, purified MHC/competitive/radioactivity; filed as Kd, often an IC50 or EC50 that approximates it; ≥ and ≤ were set here for values at or beyond the usual limits of such assays. Particulars: source organism: Dengue virus 4 Philippines/H241/1956.
The target in experiment [7] is HLA-B*58:01. The experiment is described as above. Particulars: source organism: Dengue virus 4 Philippines/H241/1956.
In experiment [8] the target is HLA-A*11:01. The experiment can be described thus: IEDB peptide-MHC binding, purified MHC/competitive/fluorescence; ≥ and ≤ were set here for values at or beyond the usual limits of such assays.
Experiment [9] has as its target HLA-A*32:01. As to the kind of experiment: IEDB peptide-MHC binding, purified MHC/competitive/radioactivity; filed as Kd, often an IC50 or EC50 that approximates it; ≥ and ≤ were set here for values at or beyond the usual limits of such assays.
Experiment [10] deals with HLA-B*15:01. As to the kind of experiment: IEDB peptide-MHC binding, purified MHC/competitive/fluorescence; filed as Kd, often an IC50 or EC50 that approximates it; ≥ and ≤ were set here for values at or beyond the usual limits of such assays. Particulars: source organism: Bacillus anthracis str. A0488.
The target of experiment [11] is HLA-A*03:01. The experiment can be described thus: IEDB peptide-MHC binding, purified MHC/direct/fluorescence; filed as Kd, often an IC50 or EC50 that approximates it; ≥ and ≤ were set here for values at or beyond the usual limits of such assays.
Experiment [12] has as its target HLA-A*11:01. Described as above.
For experiment [13], the target named is HLA-A*26:01. The experiment can be described thus: IEDB peptide-MHC binding, purified MHC/competitive/fluorescence; filed as Kd, often an IC50 or EC50 that approximates it; ≥ and ≤ were set here for values at or beyond the usual limits of such assays. Particulars: source organism: Bacillus thuringiensis serovar israelensis ATCC 35646.
Experiment [14] concerns the target HLA-B*46:01. The experiment is described as above. Particulars: source organism: Clostridium botulinum B str. Eklund 17B (NRP).
In experiment [15] the target is HLA-B*08:01. The experiment can be described thus: IEDB peptide-MHC binding, purified MHC/competitive/radioactivity; filed as Kd, often an IC50 or EC50 that approximates it; ≥ and ≤ were set here for values at or beyond the usual limits of such assays.
For experiment [16], the target named is HLA-A*24:02. The experiment is described as above. Particulars: source organism: Dengue virus 4 Philippines/H241/1956.
[17] abbreviates: source organism: Vaccinia virus WR.
Setting [18] is: source organism: Dengue virus 1 Brazil/97-11/1997.
Setting [19] is: source organism: Vaccinia virus Copenhagen.
The mark [20] stands for this setting: source organism: Dengue virus 2 Peru/IQT2913/1996.
Setting [21] is: source organism: Escherichia coli O157:H7.
Where [22] appears, read: source organism: Yellow fever virus.
[23] abbreviates: source organism: Mycobacterium tuberculosis.
The mark [24] stands for this setting: source organism: Dengue virus 4 Philippines/H241/1956.

Take SSMKGENVF: the dissociation constant Kd in experiment [1] (setting [17]) is 47 nM.

Take TMAHRKPTY: the equilibrium dissociation constant (Kd) in experiment [2] (setting [18]) stood at 144 nM; in experiment [3], 2060 nM.

On to HTFTAPIAK, for which the values for the Kd in experiment [4] and in experiment [5] (source organism: Escherichia coli 101-1) were 112 nM and 19.1 nM, respectively.

With WVAEIQPQW, the Kd was 6.52 nM in experiment [6] and 57.6 nM in experiment [7].

Consider SAGESSILR, for which the IC50 in experiment [8] (setting [19]) is 1410 nM.

Regarding RQMEGEGVF, the Kd came out at 4.86 nM in experiment [2] (setting [20]) and 429 nM in experiment [9] (setting [20]).

In [10], VLQSAANMY gave a Kd of 67.5 nM.

For RVIYPANQK, the Kd in experiment [11] (setting [21]) is 35 nM; in experiment [12] (setting [21]), 6.9 nM; in experiment [5] (source organism: Escherichia coli O157:H7 str. Sakai), 72.2 nM.

In the case of AANCFGQHV, the equilibrium dissociation constant (Kd) in [1] (setting [17]) came out at 21.8 nM.

As to MKYCSYQSF, in experiment [1] (setting [17]), the dissociation constant (Kd) was 1.55 nM.

Regarding GLYCYFTHL, the Kd in experiment [2] (setting [17]) was found to be 6.87 nM.

In turn, NTIRNAASF returned a Kd in experiment [13] of 73.5 nM.

Turning to AADEPPLVR, the IC50 in [8] (source organism: Vaccinia virus) is at least 142000 nM.

In the case of SPVMSGNSY, in experiment [1] (setting [17]), the equilibrium dissociation constant (Kd) amounted to 363 nM.

Take GVFYRPLHF: the Kd in experiment [2] (setting [17]) turned out to be 5.54 nM.

As to TINAVASRK, the Kd in [12] (setting [22]) is 4.3 nM; in experiment [5] (setting [22]), 801 nM.

As to FFKDGMAEV, the equilibrium dissociation constant (Kd) in [14] amounted to 398 nM.

Turning to RLYSIFLIF, the Kd came to 3.35 nM in experiment [2] (setting [19]), 0.158 nM in [1] (setting [19]), 6.87 nM in [9] (setting [19]) and 15700 nM in [15] (setting [19]).

Turning to RSADGSPPY, the figures for the Kd in [11] (setting [23]), in [12] (setting [23]) and in [5] (source organism: Mycobacterium tuberculosis variant bovis BCG str. Pasteur 1173P2) were 2500 nM, 25.7 nM and at least 20000 nM, respectively.

Regarding KMYACKNDM, the Kd in [1] (setting [17]) was 42.9 nM.

Regarding SLNTSTLGF, the Kd was found to be 1.67 nM in experiment [2] (setting [19]), 13.1 nM in experiment [1] (setting [19]) and 416 nM in [9] (setting [19]).

Regarding RSQVGVGVF, in experiment [2] (setting [18]), the dissociation constant (Kd) amounted to 26 nM.

The sequence GTSGSPIVDK returned a half-inhibitory concentration (IC50) in experiment [8] (source organism: West Nile virus) of 212 nM.

On to ENKKNLSEQ, for which the IC50 in experiment [8] (source organism: Sudan ebolavirus) was at least 75400 nM.

In the case of VMKRYSAPF, the values for the Kd in [2] (setting [24]), in [16] and in experiment [15] (setting [24]) were 10.2 nM, 994 nM and 8.98 nM, respectively.

Turning to LLSRFFNMI, the values for the Kd in experiment [1] (setting [17]), in [9] (setting [17]) and in [15] (setting [17]) were 821 nM, 714 nM and 1640 nM, respectively.

With FKVLDGSPI, the Kd in experiment [1] (setting [17]) is 0.822 nM.

As to LLCKLSCAV, the Kd in experiment [2] (setting [17]) came to 416 nM.

On to LIRPKILSM, for which the Kd in experiment [2] (setting [17]) was found to be 10.4 nM; in experiment [15] (setting [17]) it was 0.548 nM.
